# From the nanobody polyreactivity screen of Harvey et al. (2022)
# Assay: yeast display, Sf9 membrane polyspecificity reagent, FACS + sequencing; frameworks hold sequencing errors
# Method in brief: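 Polyreactivity labels are assigned by the sorting gate from which each nanobody was recovered. The gates were low and high (top ~1%), set on anti-HA fluorescence for expression and streptavidin fluorescence for reagent binding. Before sorting, galactose-induced (36–48 hours) yeast display cells were stained for 1 hour at 4 °C with 10% biotinylated, detergent-solubilized Sf9 membrane reagent.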
row,Sequence,polyreactivity (PSR sort gate)
1,QVHLVESGGGLVQAGGSLRLSCAASGFTFSSNAMGWYRQAPGKERELVADISFNSTSTYYADSVKGRFTISRDNAKNTVYLQMNSLKPEDTAVYYCAADVPRVQSEPEYDYWGQGTQVTVSS,low polyreactivity
2,QVQLVASGGGLVQAGGSLRLSCAASGSTFPRYAMGWYRQAPWKERELVAAITTSGGSTYYADSVKGRFTISRDNAKNTVYLQMNRLKPEDTAVYYCAADYCYYLDAGYYWGQGTQVTVSS,low polyreactivity
3,QVQLVESGGGLVQAGGSLRLSCAASGLTFGDYAMGWYRQAPGKERELVAVISRSGGSTYYADSVKGRFTISRDNAKNTVYLQMNSLKTEDTAVYYCDKDAGLQKYHHDYWGQGTQVTVSS,low polyreactivity
4,QVQLVESGGGLVQAGGSLRLSCAASGSIFSSYALGWYRQAPGKERELVAAISQSGGDTYYADSVKGRFTISRDNAKNTVYLQMNSLKPEDTAVYYCAADWAYYVASYLYYTFDYWGQGTQVTVSS,low polyreactivity
5,QVQLVESGGGLVQAGGSLRLSCAASGSIFGSNTMGWYRQAPGKEREFVAAISFSGGSTYYADSVKGRFTISRDNAKNTVYLQLNSLKPEDTAVYYWAARQSRVGTSFYYSRRDYWGQGTEVTVSS,high polyreactivity
6,QVQLVESGGGLVQAGGSLRLSCAASGFILDRYAMGWYRQAPGKERELVASITSGGSTNYADSVKGRFTISRDNAKNTVYLQMNSLKPEDTAVYYCAAYPWRYWNHEYNYWGQGTQVTVSS,high polyreactivity
7,QVQLVESGGGLVQARGSLRLICAASGRIFPDYGMGWYRQAPGKESEFDAVIDWIGVSTYYADSVKGRFTISRDNAKNTVYLQINSLKPEDTAVYYCNAEYAFPSPKSSLDYWGQGTQVTVSS,low polyreactivity
8,QVQLEESGGGLVQAGGSLRLSCAASGSTFYGYGMGWYRQAPGKERELVAAITGSGDTTYYADSVKGRFTISRDNAKNTVYLQMNSLKTEDTAVYYCNARWHAEYDYWGQGTQVTVSS,low polyreactivity
9,QVQLVESVGGLVQAGGSLRLSCAASGSTFYPNAMGWYRQAPGKEREFVAAITWSGGRTYYADSVKGRFTNSRDNAKNTVYLQMNSLKPEDTAVYYCSKGGYQHYCGQGTQVTVSS,high polyreactivity
10,QVQLVESGGGLVQAGGSLRLSCAASGSTFYHNVMGWYRQAPGKERELVASIDTGDSTNYADSVKGRFTISRDNAKNTVYLQMNSLITEHTAVYYCNADSYPALNKRGYEYWGQGTQVTVSS,low polyreactivity
11,QVQLVESGGGLVQAGGSLRLSCAASGSIFFSYAMGWYRQAPGKEREGGSTDYADSVKGRFTISRDNAKNTVYLQMNSLKPEDTAVYYCAASVRGIRYDYWGQGTQVTVSS,low polyreactivity
12,QVQLVESGGGLVQAGGSLRLSCAASGFIFSYAMGWYRQAPGKERELVAAISKSGGRTYYADSVKGRFTISRDNAKNTVYLQMNSLKPEDTAVYYCAVRDLHLSIARYNYWGQGTQVTVSS,high polyreactivity
13,QVQLVESGGGLVQAGGSLRLSCAASGSIFADYAMGWYRQAPGKERELVSAITGSGGRTYYADSVKGRFTISRDNAKNTLYLQMNSLKPEDTAVYYCAADGLSNVRQMDYWGQGTQVTVSS,low polyreactivity
14,QVQLVDSGGGLVQAGGSLRLSCAASGSIFQYYAMGWYRQAPGKEMELVAAITSVSSTSYADSVKGRFTISRDNAKNTVYLQMNSLKPEDTAVYYCDAAFRRGLLKMDYWGQGTQVTVSS,low polyreactivity
15,QVQLVESGGGLVQAGGSLRLSCAASGITFWTYAMGWYRQAPGKERELVAAISKSGGSTYYADSVKGRFTISRDNAKNTVYLQMNSLKPEDTAVYYCAAKGLRYRDIDYDYWGQGTQVTVSS,low polyreactivity
16,QVQLVESGGGLVPAGGSLRLSCAASGRSLSRYTMGWYRQAPGKERELVAAISTSGSTYYADSVKGRFTISRDNAKNTVYLQMNSLKPEDTAVYFCNAVRRYLQYATGYAYWGQGTQVTVSS,high polyreactivity
17,QVQLEESGGGVVQAGGSLRLTCAASASTSYNMGWYTQAPGKERELVAAISYPGGRTYYADSVKGRFTISRDNAKNTVYLQMTCLKPDDTGVYYCAKRIFVTFDSWGQGTQVTVSS,low polyreactivity
18,QVQLVESGGGLVQAGGSLRLSCAASGFTFYSNSMGWYRQAPGKERELVAAISSGGGTTYYADSVKGRFTISRDNAKNTVYLQMNSLKPEYTAVYYCAAGLSFFRSYSGFYYWGQGTQVTVSS,low polyreactivity
19,QVQLVDSGGGLVQAGGSLRLSCAASGSTFRGYAMGWYRQSPGKERELVAAITGSAGSTYYADSVKGRFTISRDNAKNTVYLQMNSLKPEDTAVYYCAAATSYRRYYYIYNYWGQGTQVTVSS,high polyreactivity
20,QVQLVETGGGLVQAGGSLRLSCAASGRTFQYYAMGWYRQATGTERELVAAITSGGSTYYADSVKGRFTISRDNAKKTVYLQMNSLKPEDTAVSYCAATFYYSGHDDYWGQVTQVTVSS,low polyreactivity
21,QVQLVESGGGLVQAGGSLSLICAASGSIFYEYAMGWYRQAPGKEREFVAAISSSGGSTYYADSVKGRFTISRDNAKNTVYLQMNSLKPEYTAVYYCNAQVGGVSIEYDYWGQGTQVTVSS,low polyreactivity
22,HVQLVESGGGLVQAGGSLRLSCAASGSIFIKYAMGWYRQAPGKERELVAAISRRGGSTYYADSVKGRFTISRDNAKNTVYLQMNSLKPEDTAVYYCAAVNIRFGYWGQGTQVTVSS,high polyreactivity

row,Sequence,polyreactivity (PSR sort gate)
1,QVQLQESGGGLVQAGGSLRLSCAASGYISTFSSEMGWYRQAPGKERELVASIAPGCTTSYADSVKGRFTISRDNAKNTVYLQMNSLKPEDTAVYYCAVDFTVPASFGYWGQGTQVTVSS,high polyreactivity
2,QVQIVESGGGLVQAGGSLRLSCAASGSIFTYNAMGWYRQAPGKERELVAAISYSGVRTYYADSVKGRFTISRDNAKNTVYLQMNRLKPVDTAVYYCNTRYPYSVLKYGYWGQGTQVTVSS,high polyreactivity
3,QVQLVESGGGLVQAGGSLRISCAASGSILTHYAMGWYRQAPGKERELVADINSGGGTSYADSVKGRFTISRDNAKNTVYLQMNSLKPEDTAVYYCAAAWWPYRYPTYYSQFDYWGQGTQVTVSS,low polyreactivity
4,QVQLVESGGGLVQAGGSLRLSCAASGITFIRNGMGWYRQAPGKERELVAAISDTGARTYYADSVKGRFTISRDNAKNTVYLQMNSLKPEDTAVYYCAAEVRTRYLYSFRWYDYWGQGTQVTVSS,low polyreactivity
5,QVQLVESGGGLVQAGGSLRFSCADSGSIFRYAMGWYRQAPGKERELVAGMSASGGRTYYADSVKGRFTISRDNAKNTVYLQMNSLKPEDTAVYYCNAVTREYQRPPVPRSYLYDYWGQGTQVTVSS,high polyreactivity
6,QVQLVESGGGLVQAGGSLRLSCAASGSNFVIYAMGWYRQAPGKERELVAAIRFSTGSTYYADSVKVRFTNSRDYAKNTVYLQMNSLKPEDTAVYYCAAATWQWPWYDYWGQGTQVTVSS,high polyreactivity
7,QVQLVESRGALVQAGGSLRLSCAASGYIFYSNAMRWYRQEPGKERELVAAITSGRGSTYYADSVKGRFTISRDNAKNTVYLQMNSLIPEDTAVYYCDVSIGRYPYRYGYWGQGTQVTVSS,high polyreactivity
8,QVQLVESGGGLVQAGGSLRLSCAASGSIFRKYVMGWYRQAPGKERELVAAISGSGGRTYYADSVKGRFTISRDNAKNTVYLQMNSLKPEDTAVSYSNAYPHAYTGSTREGDYWGQGTQVTVSS,high polyreactivity
9,QVQLVESGGGLVQAGGSLRLSCAASGSTFGGNAMGWYRQAPGKERELVAAISSSGGSTYYADSVKGRFTISRDNAKNTVYLQMNSLKPEDTAVYSCAALYHWTYDYWGQGTQVTVSS,low polyreactivity
10,QVQLQESGGGLVQAGGSLRLSCAASGSISNLIAKGWYRQAQGKEREFVAAIGPGANTNYADSVKGRFTISRDNANNTVSLQMNSLKPDDTAVFYCAVDYYGVAVYHYWGQGTQVTVSS,high polyreactivity
11,QVQLEESGGGLVQAGGSLRLSCAASGRIFYAYGIGWYRQAPVKERELVAAISSGDSTNYADSVKGRFTISRDNAKNTVYFQMNSLKPEDTAVYYCAKDGSPLQLTDPTHDYEYWGQGTQVTVSS,low polyreactivity
12,QVQLVESGGGLVQAGGSLRLSCAASGRIFSNYAMGWYRQAPGKERELVAAISRGGGRTFYADSVKGRFTISRDNAKNTVYLQMNSLKPEDTAVYYCATRSYYVKGDYWGQGTQVTVSS,high polyreactivity
13,QVQLVESGGGLVQAGGSLRLSCAASGFTFPYYAMGLYRQAPGKERELVATISSGSSTNYADSVKGRFTISRDNAKNTVYLQMNSLKPEDTAVYYCAAVRSGYSGTDGQYSKYGYWGQGTQVTVSS,high polyreactivity
14,QVQLVESGGGLLQAGGSLRLSCAASGRTFTNSAMGWYRQEPGKERELVAGISSSGGRTYYAVSVKGRFTISRDNAMNTVYLQMNSLKAEDTAVYYCAAQHSRVYRRMDYWGQGTQVSVSS,high polyreactivity
15,QVQLVESGGGLVQAGGSLRLSCAASGFIIKSYAMGWYRQAPGKERELVAAISYTGSITYYADSVKGRFTISRDNAKNTVYLQMNSLKPEDTSVYYCAVGRYADQNDYWGQGTQVTVSS,high polyreactivity
16,QVQLVESGGGLVQAGGSLRLSCAASGSISLHYAMGWYRQAPGKERELVAAISKSGGSTYYADSVKGRFTISRDNAKNTVYLQMNSLKPEDTAVYYCAADTYRSFGYNYWGQGTQVTVSS,high polyreactivity
17,QVQLVESGGGLVQAGGSLRLSCAASGRTFGQNAMGWYRQAPGKERELVAAISSGGSTYYADSVKGRFTISRDNAKNTVYLQMNSLKPEDTAVYYCAVSSWDRGYWYYYWGQGTQVTVSS,high polyreactivity
18,QVHLVESGGGLFQAGGSLRLSCAPSGSITGYYAMGWYRQAPGKERDLVASIRNTGARTYYADSVKGRFTISRDNAKKTVYIQKNSLKAEDTAVYYCAADVKRDRVRGGDDWGQGTQVTVSS,low polyreactivity
19,QVQLVESGGGLVQAGGSLRLSCAASGSILTRNAMGWYRQAPGKERELVAAISGGGGRTYYADSVKGRFTISRDNAKNTVYLQMNSLKPEDTAVYYCAADDGYSSNEYDYWGQGTQVTVSS,low polyreactivity
20,QVQLVESGGGVVQAGGSLRLSCAASGRTFLVTALGWYRQAPGKERELVAVITRGGSTNYADSVKGRFTISRDNAKNTVYLQMNSLKPEDTAVYYCAKQFSPYRSYGPVVRYDYWGQGTQVTVSS,low polyreactivity
21,QVQLVESGGGLVQAGGSLRLSCAASGRIFSQNAMGWYRQAPGKERELVAAISGGSTNYADSVKGRFTISRDNAKNTVFLQMNSLKPEDTAVYYCAADAPFKMDYWGQGTQVTVSS,low polyreactivity
